Assay results as given in patent publication US20150344570A1 (published 2015).

T1: FcγRIIb extracellular domain with C-terminal His tag (human, UniProt P31994 43-217)
T1 construct: extracellular domain; soluble analyte in Biacore; also called FcgRIIb; not shown: His tag at the C terminus
T1 sequence (looked up): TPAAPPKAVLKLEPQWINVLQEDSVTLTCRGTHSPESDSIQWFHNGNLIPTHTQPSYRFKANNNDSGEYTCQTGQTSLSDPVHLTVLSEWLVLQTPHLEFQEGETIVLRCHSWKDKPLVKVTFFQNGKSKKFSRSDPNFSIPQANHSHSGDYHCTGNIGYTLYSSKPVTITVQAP

B1: GpH7-A5/GpH7-B3 variant P329_02A/GpL16-k0 (antibody, human IgG1, kappa)
heavy 1: not shown
heavy 2: not shown
light: DIVMTQSPLSLPVTPGEPASISCQASESLVHSNRNTYLHWYLQKPGQSPQLLIYKVSNRFSGVPDRFSGSGSGTDFTLKISRVEAEDVGVYYCSQNTHVPPTFGQGTKVEIERTVAAPSVFIFPPSDEQLKSGTASVVCLLNNFYPREAKVQWKVDNALQSGNSQESVTEQDSKDSTYSLSSTLTLSKADYEKHKVYACEVTHQGLSSPVTKSFNRGEC
notes: change in the GpH7-B3 H chain only; also called He Ab
B2: GpH7-A5/GpH7-B3 variant S324_16H/GpL16-k0 (antibody, human IgG1, kappa)
heavy 1: not shown
heavy 2: not shown
light: B1 light
notes: as for B1
B3: GpH7-A5/GpH7-B3 variant T335_05P/GpL16-k0 (antibody, human IgG1, kappa)
heavy 1: not shown
heavy 2: not shown
light: B1 light
notes: as for B1
B4: GpH7-A5/GpH7-B3 variant S324_08L/GpL16-k0 (antibody, human IgG1, kappa)
heavy 1: not shown
heavy 2: not shown
light: B1 light
notes: as for B1
B5: GpH7-A5/GpH7-B3 variant S324_20W/GpL16-k0 (antibody, human IgG1, kappa)
heavy 1: not shown
heavy 2: not shown
light: B1 light
notes: as for B1
B6: GpH7-A5/GpH7-B3 variant T335_02A/GpL16-k0 (antibody, human IgG1, kappa)
heavy 1: not shown
heavy 2: not shown
light: B1 light
notes: as for B1
B7: GpH7-A5/GpH7-B3 variant T335_01G/GpL16-k0 (antibody, human IgG1, kappa)
heavy 1: not shown
heavy 2: not shown
light: B1 light
notes: as for B1
B8: GpH7-A5/GpH7-B3 variant S324_09D/GpL16-k0 (antibody, human IgG1, kappa)
heavy 1: not shown
heavy 2: not shown
light: B1 light
notes: as for B1
B9: GpH7-A5/GpH7-B3 variant T335_06M/GpL16-k0 (antibody, human IgG1, kappa)
heavy 1: not shown
heavy 2: not shown
light: B1 light
notes: as for B1
B10: GpH7-A5/GpH7-B3 variant T335_11K/GpL16-k0 (antibody, human IgG1, kappa)
heavy 1: not shown
heavy 2: not shown
light: B1 light
notes: as for B1
B11: GpH7-A5/GpH7-B3 variant S324_14T/GpL16-k0 (antibody, human IgG1, kappa)
heavy 1: not shown
heavy 2: not shown
light: B1 light
notes: as for B1
B12: GpH7-A5/GpH7-B3 variant S324_12R/GpL16-k0 (antibody, human IgG1, kappa)
heavy 1: not shown
heavy 2: not shown
light: B1 light
notes: as for B1
B13: GpH7-A5/GpH7-B3 variant T335_12R/GpL16-k0 (antibody, human IgG1, kappa)
heavy 1: not shown
heavy 2: not shown
light: B1 light
notes: as for B1
B14: GpH7-A5/GpH7-B3 variant S324_11K/GpL16-k0 (antibody, human IgG1, kappa)
heavy 1: not shown
heavy 2: not shown
light: B1 light
notes: as for B1
B15: GpH7-A5/GpH7-B3 variant S324_15Y/GpL16-k0 (antibody, human IgG1, kappa)
heavy 1: not shown
heavy 2: not shown
light: B1 light
notes: as for B1
B16: GpH7-A5/GpH7-B3 variant S324_10E/GpL16-k0 (antibody, human IgG1, kappa)
heavy 1: not shown
heavy 2: not shown
light: B1 light
notes: as for B1
B17: GpH7-A5/GpH7-B3 variant S324_18N/GpL16-k0 (antibody, human IgG1, kappa)
heavy 1: not shown
heavy 2: not shown
light: B1 light
notes: as for B1
B18: GpH7-A5/GpH7-B3 variant S324_19Q/GpL16-k0 (antibody, human IgG1, kappa)
heavy 1: not shown
heavy 2: not shown
light: B1 light
notes: as for B1

Key:
[1] = target: T1, FcγRIIb extracellular domain with …; assay: SPR, binding relative to GpH7-A5/GpH7-B3/GpL16-k0 = 100
[2] = target: T2, FcγRIa extracellular domain with C-terminal His tag (human, UniProt P12314 16-292); assay: as above
T2 construct: extracellular domain; soluble analyte in Biacore; also called FcgRI; not shown: His tag at the C terminus
T2 sequence (P12314 16-292): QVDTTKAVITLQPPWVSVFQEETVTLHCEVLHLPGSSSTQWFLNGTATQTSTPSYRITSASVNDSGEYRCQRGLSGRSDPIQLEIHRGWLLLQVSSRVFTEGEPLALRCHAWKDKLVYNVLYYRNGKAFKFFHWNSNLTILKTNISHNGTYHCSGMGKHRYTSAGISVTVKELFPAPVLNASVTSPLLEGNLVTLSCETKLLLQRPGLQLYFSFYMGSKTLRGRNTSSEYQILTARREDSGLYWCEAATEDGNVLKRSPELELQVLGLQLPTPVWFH

Binder	He/Con_2b [1]	He/Con_1a [2]
B1	40.5 % of control	102 % of control
B2	83.5 % of control	113 % of control
B3	99.9 % of control	106 % of control
B4	89.6 % of control	103 % of control
B5	87.5 % of control	114 % of control
B6	94 % of control	103 % of control
B7	96.7 % of control	104 % of control
B8	85.8 % of control	104 % of control
B9	99.4 % of control	107 % of control
B10	91 % of control	111 % of control
B11	88.4 % of control	121 % of control
B12	63.1 % of control	102 % of control
B13	91.9 % of control	113 % of control
B14	68.6 % of control	102 % of control
B15	88.2 % of control	114 % of control
B16	77.4 % of control	105 % of control
B17	81.1 % of control	116 % of control
B18	66.8 % of control	112 % of control
